Reference: patent US20240261333A1, “NOVEL TARGETS FOR ENHANCING ANTI-TUMOR IMMUNITY” (THE BROAD INSTITUTE, INC., priority 2021, published 2024)

Target: T1, B3GNT2 (Homo sapiens, UniProt Q9NY97)
T1 construct: The respective ORFs of candidate genes [CD274 (NM_014143), MCL1 (NM_021960), JUNB (NM_002229), and B3GNT2 (NM_006577)] were synthesized; expressed in transfected cells; host or cells: A375 melanoma cells (lentiviral ORF overexpression)
T1 sequence (Q9NY97 1-397): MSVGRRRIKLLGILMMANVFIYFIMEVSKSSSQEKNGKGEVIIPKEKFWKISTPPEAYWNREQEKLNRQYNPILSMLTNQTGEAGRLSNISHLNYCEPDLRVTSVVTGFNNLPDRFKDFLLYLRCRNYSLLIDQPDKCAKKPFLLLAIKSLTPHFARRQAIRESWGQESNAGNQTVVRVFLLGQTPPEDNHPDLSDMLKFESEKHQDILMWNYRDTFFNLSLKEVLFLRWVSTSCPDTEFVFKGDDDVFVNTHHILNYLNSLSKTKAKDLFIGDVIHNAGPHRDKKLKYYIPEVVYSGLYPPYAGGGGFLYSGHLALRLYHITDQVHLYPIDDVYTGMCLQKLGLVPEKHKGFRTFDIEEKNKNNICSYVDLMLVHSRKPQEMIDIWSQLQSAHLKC
Test: Co-IP of FLAG-tagged B3GNT2 followed by mass spectrometry
Assay type: cell-based
Set-up: C-term IgG / C-term flag: unit not given here
Conditions: Co-IP followed by mass spectrometry of B3GNT2; for C-term flag / C-term IgG: C-term tag; for C-term flag / N-term FLAG: FLAG pull-down; for C-term IgG / N-term IgG: IgG pull-down; for N-term FLAG / N-term IgG: N-term tag
Method: Cells were plated in 10-cm cell culture dishes and grown to 60-80% confluency. For each condition, two biological replicates were harvested for co-IP. Cells were washed with PBS and 4 mL of lysis buffer (20 mM HEPES, 1% Triton X-100, 150 mM NaCl, 1 mM EDTA, and 10% glycerol) containing protease inhibitor cocktail was added. Cells were scraped and lysate was incubated at 4° C. under rotary agitation for 1 h. Lysate was centrifuged at 14,000×g for 10 min at 4° C. Supernatant was transferred to a new tube and an aliquot was taken as the input. […] For Western blots, 10 μg/mL Chicken Anti-FLAG (Aves labs ET-DY100) and IgY control (R&D Systems AB-101-C) antibodies were biotinylated (Thermo Fisher Scientific 90407) and added to the respective conditions. Lysates with antibodies were incubated at 4° C. under rotary agitation overnight. For each mL of lysate, 50 μL of Pierce Protein A/G Magnetic Beads (Mass spectrometry; Thermo Fisher Scientific 88803) or Pierce Streptavidin Magnetic Beads (Western blot; Thermo Fisher Scientific 88817) was washed twice with lysis buffer. Lysates with antibodies were added to the beads and incubated at 4° C. under rotary agitation for 4 h. Beads were washed with lysis buffer 3 times and resuspended in lysis buffer for storage. […] This solution was subjected to solid phase extraction to concentrate the peptides and remove unwanted reagents followed by injection onto a Shimadzu HPLC with fraction collector. Eight fractions were collected and after concentration were injected on a Waters NanoAcquity HPLC equipped with a self-packed Aeris 3 μm C18 analytical column 0.075 mm by 20 cm, (Phenomenex). Peptides were eluted using standard reverse-phase gradients. The effluent from the column was analyzed using a Thermo Orbitrap Elite mass spectrometer (nanospray configuration) operated in a data dependent manner for 54 minutes. […] Scaffold Q+S (Proteome Software) was used to provide consensus reports for the identified proteins.

B1: TXN (protein)
chain: VKQIESKTAFQEALDAAGDKLVVVDFSATWCGPCKMIKPFFHSLSEKYSNVIFLEVDVDDCQDVASECEVKCMPTFQFFKKGQKVGEFSGANKEKLEATINELV
C-term flag: 3
C-term IgG: 0
N-term FLAG: 3
N-term IgG: 3

B2: CDSN (protein)
chain: KSIGTFSDPCKDPTRITSPNDPCLTGKGDSSGFSSYSGSSSSGSSISSARSSGGGSSGSSSGSSIAQGGSAGSFKPGTGYSQVSYSSGSGSSLQGASGSSQLGSSSSHSGNSGSHSGSSSSHSSSSSSFQFSSSSFQVGNGSALPTNDNSYRGILNPSQPGQSSSSSQTFGVSSSGQSVSSNQRPCSSDIPDSPCSGGPIVSHSGPYIPSSHSVSGGQRPVVVVVDQHGSGAPGVVQGPPCSNGGLPGKPCPPITSVDKSYGGYEVVGGSSDSYLVPGMTYSKGKIYPVGYFTKENPVKGSPGVPSFAAGPPISEGKYFSSNPIIPSQSAASSAIAFQPVGTGGVQLCGGGSTGSKGPCSPSSSRVPSSSSISSSSGLPYHPCGSASQSPCSPPGTGSFSSSSSSQSSGKIILQPCGSKSSSSGHPCMSVSSLTLTGGPDGSPHPDPSAGAKPCGSSSAGKIPCRSIRDILAQVKPLGPQLADPEVFLPQGELLNSP
C-term flag: 0
C-term IgG: 0
N-term FLAG: 5
N-term IgG: 0

B3: TAGLN (protein)
chain: ANKGPSYGMSREVQSKIEKKYDEELEERLVEWIIVQCGPDVGRPDRGRLGFQVWLKNGVILSKLVNSLYPDGSKPVKVPENPPSMVFKQMEQVAQFLKAAEDYGVIKTDMFQTVDLFEGKDMAAVQRTLMALGSLAVTKNDGHYRGDPNWFMKKAQEHKREFTESQLQEGKHVIGLQMGSNRGASQAGMTGYGRPRQIIS
C-term flag: 3
C-term IgG: 0
N-term FLAG: 2
N-term IgG: 0

B4: POF1B (protein)
chain: MSSSYWSETSSSSCGTQQLPEVLQCQPQHYHCYHQSSQAQQPPEKNVVYERVRTYSGPMNKVVQALDPFNSREVLSPLKTTSSYQNLVWSDHSQELHSPTLKISTCAPSTLHITQNTEQELHSPTVKLTTYPQTTIRKYVVQNPEQEPLSQFLRGSHFFPGNNVIYEKTIRKVEKLNTDQGCHPQAQCHHHIIQQPQVIHSAHWQQPDSSQQIQAITGNNPISTHIGNELCHSGSSQICEQVIIQDDGPEKLDPRYFGELLADLSRKNTDLYHCLLEHLQRIGGSKQDFESTDESEDIESLIPKGLSEFTKQQIRYILQMRGMSDKSLRLVLSTFSNIREELGHLQNDMTSLENDKMRLEKDLSFKDTQLKEYEELLASVRANNHQQQQGLQDSSSKCQALEENNLSLRHTLSDMEYRLKELEYCKRNLEQENQNLRMQVSETCTGPMLQAKMDEIGNHYTEMVKNLRMEKDREICRLRSQLNQYHKDVSKREGSCSDFQFKLHELTSLLEEKDSLIKRQSEELSKLRQEIYSSHNQPSTGGRTTITTKKYRTQYPILGLLYDDYEYIPPGSETQTIVIEKTEDKYTCVSSLGHF
C-term flag: 0
C-term IgG: 0
N-term FLAG: 5
N-term IgG: 0

B5: KCTD5 (protein)
chain: AENHCELLSPARGGIGAGLGGGLCRRCSAGLGALAQRPGSVSKWVRLNVGGTYFLTTRQTLCRDPKSFLYRLCQADPDLDSDKDETGAYLIDRDPTYFGPVLNYLRHGKLVINKDLAEEGVLEEAEFYNITSLIKLVKDKIRERDSKTSQVPVKHVYRVLQCQEEELTQMVSTMSDGWKFEQLVSIGSSYNYGNEDQAEFLCVVSKELHNTPYGTASEPSEKAKILQERGSRM
C-term flag: 3
C-term IgG: 0
N-term FLAG: 2
N-term IgG: 0

B6: IMMT (protein)
chain: STSGSSGLTTGKIAGAGLLFVGGGIGGTILYAKWDSHFRESVEKTIPYSDKLFEMVLGPAAYNVPLPKKSIQSGPLKISSVSEVMKESKQPASQLQKQKGDTPASATAPTEAAQIISAAGDTLSVPAPAVQPEESLKTDHPEIGEGKPTPALSEASSSSIRERPPEEVAARLAQQEKQEQVKIESLAKSLEDALRQTASVTLQAIAAQNAAVQAVNAHSNILKAAMDNSEIAGEKKSAQWRTVEGALKERRKAVDEAADALLKAKEELEKMKSVIENAKKKEVAGAKPHITAAEGKLHNMIVDLDNVVKKVQAAQSEAKVVSQYHELVVQARDDFKRELDSITPEVLPGWKGMSVSDLADKLSTDDLNSLIAHAHRRIDQLNRELAEQKATEKQHITLALEKQKLEEKRAFDSAVAKALEHHRSEIQAEQDRKIEEVRDAMENEMRTQLRRQAAAHTDHLRDVLRVQEQELKSEFEQNLSEKLSEQELQFRRLSQEQVDNFTLDINTAYARLRGIEQAVQSHAVAEEEARKAHQLWLSVEALKYSMKTSSAETPTIPLGSAVEAIKANCSDNEFTQALTAAIPPESLTRGVYSEETLRARFYAVQKLARRVAMIDETRNSLYQYFLSYLQSLLLFPPQQLKPPPELCPEDINTFKLLSYASYCIEHGDLELAAKFVNQLKGESRRVAQDWLKEARMTLETKQIVEILTAYASAVGIGTTQVQPE
C-term flag: 26
C-term IgG: 16
N-term FLAG: 23
N-term IgG: 17

B7: IL13RA2 (protein)
chain: DTEIKVNPPQDFEIVDPGYLGYLYLQWQPPLSLDHFKECTVEYELKYRNIGSETWKTIITKNLHYKDGFDLNKGIEAKIHTLLPWQCTNGSEVQSSWAETTYWISPQGIPETKVQDMDCVYYNWQYLLCSWKPGIGVLLDTNYNLFYWYEGLDHALQCVDYIKADGQNIGCRFPYLEASDYKDFYICVNGSSENKPIRSSYFTFQLQNIVKPLPPVYLTFTRESSCEIKLKWSIPLGPIPARCFDYEIEIREDDTTLVTATVENETYTLKTTNETRQLCFVVRSKVNIYCSDDGIWSEWSDKQCWEGEDLSKKTLLRFWLPFGFILILVIFVTGLLLRKPNTYPKMIPEFFCDT
C-term flag: 2
C-term IgG: 0
N-term FLAG: 3
N-term IgG: 0
